According to the Immune Epitope Database (IEDB):

Assays:
Assay in all cases: IEDB peptide-MHC binding, purified MHC/competitive/radioactivity; ≥ and ≤ were set here for values at or beyond the usual limits of such assays
Details in all cases: source organism: Bordetella pertussis
HLA-B*44:03 = molecular target: HLA-B*44:03
HLA-A*02:01 = molecular target: HLA-A*02:01
HLA-B*35:01 = molecular target: HLA-B*35:01
HLA-B*53:01 = molecular target: HLA-B*53:01
HLA-B*57:01 = molecular target: HLA-B*57:01
HLA-B*07:02 = molecular target: HLA-B*07:02

## AESNALSKR
HLA-B*44:03
  IC50: 44.2 µM

## AGLAGPSAV
HLA-A*02:01
  IC50: ≥ 78.1 µM

## DAKHDLTVT
HLA-B*35:01
  IC50: 69.9 µM

## DENGKPQTY
HLA-B*44:03
  IC50: 11.5 µM

## FAISAYALK
HLA-B*53:01
  IC50: 4.42 µM

## FALYDGTYL
HLA-B*35:01
  IC50: 20.9 µM

## GLDVQQGTV
HLA-A*02:01
  IC50: 60 µM

## KAGTIAAPW
HLA-B*57:01
  IC50: 0.297 µM

## KEDVDAAQI
HLA-B*44:03
  IC50: 34.2 µM

## LAAVLVNPH
HLA-B*35:01
  IC50: 69.9 µM

## QSIVEAPEL
HLA-A*02:01
  IC50: 46 µM

## TGDGGGHTD
HLA-B*53:01
  IC50: 69.9 µM

## TPLGSLFAI
HLA-B*35:01
  IC50: 1.34 µM
HLA-B*53:01
  IC50: 8.19 µM

## YATNPQTQL
HLA-B*07:02
  IC50: 69.6 µM

## YEYIWGLYP
HLA-B*44:03
  IC50: 8.39 µM

## YEYSKGPKL
HLA-B*44:03
  IC50: 47.7 µM
